Our source for the stoichiometry N values is article PMC10182996.

The target in this experiment is CPn0677-His (recombinant full-length CPn0677 with C-terminal 10His tag) (Chlamydia pneumoniae GiD). Briefly: SEC; Superdex 200 Increase 10/300 GL, 4 °C, 0.5 ml/min, 5.2 mg CPn0677 (5 mg/ml) in PBS pH 6.0, against standard proteins.

Consider “CPn0677-His (recombinant full-length CPn0677 with C-terminal 10His tag) (natural protein)”, for which the stoichiometry N was determined as 2.
